Results reported in publication PMC12217528, “Structural basis of topoisomerase targeting by delafloxacin” (Nature Communications, 2025).

Biological target: ParE30-ParC55 fusion protein (fused ParE-ParC cleavage core of S. pneumoniae topo IV) (Streptococcus pneumoniae)
Test: crystal structure; ParE30-ParC55 fusion protein (4.5 mg/ml) mixed with 18-mer V-site or E-site duplex DNA at 1:1.2 molar ratio, 2 mM delafloxacin, 10 mM MgCl2; sitting-drop vapour diffusion, 50 mM sodium cacodylate, 62.5 mM KCl, 7.5 mM MgCl2, 2.5% Tacsimate, 5.5–7% isopropanol, pH 6.5, 301 K; V18 with PEGylated graphene nucleant 2.0 Å, V18 and E18 without 2.4 Å

ParE30-ParC55 fusion protein (fused ParE-ParC cleavage core of S. pneumoniae topo IV) (enzyme)
stoichiometry N: 2
